# Laboratory results published in the DeepSol protein solubility set.
# Assay: soluble on expression in E. coli; label from the status in PepcDB or PDB records
row,Sequence,soluble on expression in E. coli
1,NPNPISIPIDLSQAGSVVEKEVKIEESWSYHLILQFAVHDRKEDGGLDGKRVWKFLGFNSYDPRDGKQVGYVDYRLAKSELGDLIDETYDCDGTVVPIKITIHQINQDNTKKLIADNLYMTKGNGSGAYTRDITTISLDKGKYIFRIENIEAFSEMIGRKVDFTIYINKRDK,soluble
2,NPTEQLLTRFNQAAQGDTGLVDTVHDELSQLVQKQGATPVTLVYLGSSETLQGRDAFMPWNKMKFTERGLATIQKGLDLMANQPMPIQEQQRLQGLPEYQ,not soluble
3,NRLLSKYDPQKEAELRTWIEGLTGLSIGPDFQKGLKDGTILCTLMNKLQPGSVPKINRSMQNWHQLENLSNFIKAMVSYGMNPVDLFEANDLFESGNMTQVQVSLLALAGKAKTKGLQSGVDIGVKYSEKQER,soluble
4,NRMKLMIVGNTGSGKTTLLQQLMKTKKSDLGMQSATVGIDVKDWPIQIRDKRKRDLVLNVWDFAGREEFYSTHPHFMTQRALYLAVYDLSKGQAEVDAMKPWLFNIKARASSSPVILVGTHLDVSDEKQRKACMSKITKELLNKRGFPAIRDYHFVNATEESDALAKLRKTIINESLNFKIRDQ,soluble
5,NRSLNELSLSDILIAADVEGGLHAVDRRNGHIIWSIEPENFQPLIEIQEPSRLETYETLIIEPFGDGNIYYFNAHQGLQKLPLSIRQLVSTSPLHLKTNIVVNDSGKIVEDEKVYTGSMRTIMYTINMLNGEIISAFGPGSKNGYFGSQSVDCSPEEKIKLQECENMIVIGKTIFELGIHSYDGASYNVTYSTWQQNVLDVPLALQNTFSKDGMCIAPFRDKSLLASDLDFRIARWVSPTFPGIIVGLFDVFNDLRTNENILVPHPFNPGDHESISSNKVYLDQTSNLSWFALSSQNFPSLVESAPISRYASSDRWRVSSIFEDETLFKNAIMGVHQIY,soluble
6,NTDYYGLDYALSFNQVEIEEKRIVIAGSGGIARTVIRYMLDHGAHRVDVLTRNAQNARRNLDIPGIGLHENIDEDYDIYVNCTPLGTLGDGDPFSTVDFRSGRTGIDLVYNPPDTPFLKRMRNAGGRTVSGLDVFIGQGLRTLELVFGIRPDSIFREYAVEALNEIR,not soluble
7,NTGFDINGMVSKIVSAERVPKQQRIDNERTNIDTSISAYGRLRESLDTMKNLMTQFRQEKAFAVRKVDTSNEQVVSATATTEAIAGNYSVDVLQLAQ,not soluble
8,NTQITIKMEPDTQALEEVVVIGYGAVKKRDLTGAVSSVKNEDITLTPATNPMQALQGRVAGLDITQASGQPGEGPKLQLRGTRSFTASGDPMFIIDGMPGDYSTLNPNDIESIEVLKDASSTAVYGAAGANGVIIITTKSGKAGK,not soluble
9,NVAYPLGEGLLSFAESLESQKIHFTTEVITSRIEPANRYVAEKLRITPGQDILYLERLRSIGDEKAMLIENRINIELCPGIVEIDFNQHNLFPTIESLSKRKIRYSESRYAARLIGNERGHFLDISEDAPVLHLEQLVFFSRELPVEFGNVWLKGNKYYLGTVLQRRELS,soluble
10,PAGHADDAMHSYFTFVAPDRGLAKVAAAQAAALRPFLAGTPLADLPLLSSVSPLKAGGRAGPDHYTDVPAGPLSMRHVADLHMFPNELRALVLTGADLREWLEMAAGVFLSPAPAGACDMLLDTSVPGHNFDSLYGLTYEIDPRAPPRYDIGGRLIADENRRIGSLCHNGTPVDDRQKFVVALNNYRANGGGHFLMLDRGEPVPLPSLRIQSALHDYLSGRLPADPLEQAPHPWRLAPL,not soluble
11,PDTSHYALLSNRIVNAVKQYRSQRALEASKDRLSLFIDQSPLGFVEYNQDFEIVRVNETLTEIFGYTETELLGETWETFVSSESYDDVDAVTSALSEASGGYHSVNENVRKDGERIVVEWHNRLVTDDS,not soluble
12,PEPAQQQAPVEKPKKKAKLEVIGDDVVSIMVSLRWLEFLLDNYGPENTLDVLDYYESLGWISATVKEQMMKYAKMTGVMNPAQEYKIKPSIQDHIINMLFIEKLRGEEINRDLIEALEREFRTIRKGVDELYGI,not soluble
13,PEPGKKPVSAFSKKPRSVEVAAGSPAVFEAETERAGVKVRWQRGGSDISASNKYGLATEGTRHTLTVREVGPADQGSYAVIAGSSKVKFDLKVIE,soluble
14,PEWDEYIAEQIESGALGEDEGAEFLERWMVQKQHPLDINTLTREDLEQFPFLNEFQIRRFLLYRHAHPEGFDSIWVLSEIAGWDRRTCLLLWPMLTVQKRSESAAASFREILSYARHDVSVHTDAILQQQEGYRPDSRHPYRGDPWGGGLRWSYAMGNRFSLGLTASKDRGEPAFDKRRKGFDSYSAHFFMEGKGAVRAVALGDYRIG,not soluble
15,PFKKRRTEDEIRKQCPWATLGRKGGRQPNIITSLELDSAVMEQNNLRFQKKYAEIEANEVRYEEYQTEDADYILVAFGSSARICNKTVQLARQQGIKAGILRPITLWPFPTKEIAKLADRAKGFLVAELNAGQMIEDVRLAVNGKVPVEHYGRMGGMLFSPDEILQALKEKVIK,not soluble
16,PHFLILNGPNVNRLGSREPEVFGRQTLTDIETDLFQFAEALHIQLTFFQSNHEGDLIDAIHEAEEQYSGIVLNPGALSHYSYAIRDAVSSISLPVVEVHLSNLYAREEFRHQSVIAPVAKGQIVGLGAEGYKLAVRYLLSQQG,soluble
17,PIVGRIIHIENQQLNEYTGNYSSFENQRAQKMMLQQAMFEKQQKQMSHMQSYIDRFRYKASKARQAQSRIKALERMEKVLPAQFDNPFSFEFRQPAALPNPIMMMDDVSAGYGDNLILEKIRLNLVP,not soluble
18,PKQRCRAPACDHFGNAKCNGYCNECFQFKQMYG,soluble
19,PLPATANSHEYLLDNGLKLVVKEDHRSPVVIQQVWYKAGSMDEVNGTTGVAHALEHMMFKGTDSVLAGEFSRKIAAIGGKENAFTSRDYTAYYQQLHQRHLPMAMELESDRMHNLQLTEEAFAKEIQVVMEERRLRTDDQAHSLLYEKMMATAFQTHPYRRPVIGWMNDLENMQVNDARDWYQRWYAPNNAVLVVVGDVDPENVFVLAKKYYGRF,not soluble
20,PLQEERLQRLQDRMVVPFDETRPDHQESLKALWNVAFPNVHLTGLVTEQWKEMGWQGPNPSTDFRGCGFIALENLLFSARTYPVNYSLLLKQRGDRAKWEYPFAVAGINISFMLIQMLDLQNNQDERAFDVLYCIAFAMMDAQWLAMHASYMEFNEVLQATRNQLERELSLDDIHRIQDLPAYNLLFQ,not soluble
21,PMMPPVGVQASILSHDTIRITWADNSLPKHQKITDSRYYTVRWKTNIPANTKYKNANATTLSYLVTGLKPNTLYEFSVMVTKGRRSSTWSMTAHGTTFEL,soluble
22,PQFEKIEGRMIRILYLLVKPESMSHEQFRKECVVHFQMSAGMPGLHKYEVRLVAGNPTDTHVPYLDVGRIDAIGECWFASEEQYQVYMESDIRKAWFEHGKYFIGQLKPFVTEELV,soluble
23,PQPGAARGLGRVAYADARQHRDILQSLVRALNGSRRRIWLATPYFLPTWKVRRALRKAAQRGVEVRLLLAGRLTDHAPVRYAGQRYYPRLLRAGVRIHEYQPRFLHLKMVMVDDWVSVGSCNFDHWNLRFNLDANLEALDPDFTNEAAASLLADFADSREVTLAMWRARPLWMR,not soluble
24,PRRLEPLIEDGLIDEVVRPLMSGKEASVYVVRCGDSLRCAKVYKEANKRSFRQAAEYQEGRKVRNSRQARAMAKGSKYGRREQEEAWQNAEVAALFRLAGAGVRVPKPYDFLDGVLLMELVADADGDAAPRLNDVTLEPDEARRHHAFLIRQIVAMLCAGLVHGDLSEFNVLLGPDGPVIIDLPQAVDAAGNNHAFSMLERDVGNMAAYFGRFAPELRQTRYAKEMWALYEAGELTAETPLSGTFVEAEEAADVRAVLREIEAAQREEARRQALRQADDAPRGEREE,not soluble
25,PTSLEKLPSADVKGQDLYKTQPPRSDAQGGKAYLKWICITCGHIYDEALGDEAEGFTPGTRFEDIPDDWCCPDCGATKEDYVLYEEK,soluble
26,PVAVYTTHDPQALKITGNRLSCEWLRIPPGTNLSKSAHEGERPEFFKLFKDGVEIPPEKMPSQLSAAGIEVNDCELDIVSADGRIRHVLGNARPLRDEN,not soluble
